Data from the supplement of paper PMC9732359.
± gives the uncertainty stated by the source.

Experiment: protein stability index of a GFP-peptide fusion (yeast GPS) (PSI 1-4); higher = more stable; sorted into four equal gates, so the index is relative within each strain
Settings: pdr5∆
Outline: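 Plasmids isolated from each sorting gate were PCR-amplified and Illumina-sequenced, and barcodes assigned the reads to strains. The gates, four of equal size, were set by GFP/Cherry fluorescence ratio on mid-log cultures in leucine-free medium. These cultures were yeast carrying a pooled library of tiled 17-residue yeast protein peptides fused downstream of GFP on a plasmid that also expresses Cherry. The protein stability index is the sum of every gate's read frequency times its gate number.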

Sequence	protein stability index
ATFLKDDLPYYVNALAD [QCR2]	2.21 ± 0.046

Same assay, conditions: san1∆

Sequence	protein stability index
AGYTDNVIRVWQVMTAN [ASC1]	1.5 ± 0.21
AHMANPLLRKVVDRESD [PRE4]	1.13 ± 0.22
AHSLSPKDYIKKLLEVH [CDC53]	2.56 ± 0.056
AIALAVRLGEEDMIRSV [RPN1]	3.39 ± 0.1
AIITDDLDTVLKKDIES [SRP72]	2.43 ± 0.061
AIKELNYNRIAKICALL [NUT1]	2.37 ± 0.08
AILQKSLKNVTEKNREI [YIL149C/MLP2]	3.05 ± 0.032
AILVPMTVNDQPIEKNG [YJR042W/NUP85]	2.84 ± 0.074
AIMKPYYLWTGKQVFSL [RPO31]	2.83 ± 0.085
AIRKNGQIDFWYQFSNS [SIN4]	1.77 ± 0.082
AISTGAKIDVMLTIARL [RPN7]	3.33 ± 0.054
AITNTGPREDTTRVGGG [RPS5]	2.9 ± 0.07
AKALESLASCLRSTEYS [POP1]	2.8 ± 0.13
AKEELNGLKDQLNEERS [YIL149C/MLP2]	3.19 ± 0.075
AKETHTKPSETPATIVK [YOR098C/NUP1]	2.87 ± 0.064
AKGVYRPNGRKDHDLKI [POP1]	2.93 ± 0.049
AKKQNRPLPQWIRLRTN [RPL39]	1.26 ± 0.082
AKLIRSAIEHTTLKSVT [RPO21]	3.19 ± 0.19
AKLWFYIYLSHETLARS [RPN3]	1.68 ± 0.15
AKNETNSESDSKSDSDS [ITC1]	3.09 ± 0.047
AKPDARTQAGDIVSIDI [MTW1]	3.55 ± 0.091
AKRNLDANPSSQIIARN [SMC2]	3.09 ± 0.095
AKSTPNTNPSPLKTQTK [GAL11]	2.64 ± 0.05
AKTELNEVSLAIKKSSM [SMC2]	3.04 ± 0.11
AKTFIDLESSSPELKAD [RPS7B]	3.29 ± 0.085
ALAFCEIGITQQRIVSA [RRP4]	1.92 ± 0.23

Sequence	protein stability index
ALDIVCSDFVKILNLEK [NUT1]	2.35 ± 0.11
ALENDVATNIVNEDPIF [YML103C/NUP188]	3.04 ± 0.052
ALFFDPSLNPIPHFIDN [PRP8]	2.47 ± 0.057
ALILADSEIEISSEKLL [RPP1A]	1.94 ± 0.096
ALIRRDFTLIPRMASVF [CDC53]	2.64 ± 0.16
ALLNFVLPKIFNSVKSF [SNF2]	1.98 ± 0.11
ALPRKLRRRTASHNVRR [POP1]	2.79 ± 0.056
ALRLSMEEEQQRQERLR [RPN10]	3.36 ± 0.065
ALSLLYHLLNYDPIKRI [SSN3]	2.39 ± 0.072
AMHNSKAASSTRIFQAL [POP1]	2.87 ± 0.14
ANALGGLGVNRRILAAA [SSN3]	1.58 ± 0.16
ANANANATANATANATA [SNF11]	3.285 ± 0.031
ANIELTWAEGTFEQFKD [RPC37]	3.31 ± 0.16
ANLGKYGILSIDDLIHE [RPL7A]	1.54 ± 0.17
ANTGGQDKIELSEEETL [SNF2]	3.08 ± 0.063
APIPKGRVKYTKRQKHF [POP1]	2.2 ± 0.13
APIQLKIDLLSGQFYFR [RGR1]	2.15 ± 0.23
APNNSNGGSEEEITCAL [MED7]	3.42 ± 0.095
APQLFPYGSFHQQQLQQ [DSN1]	2.77 ± 0.087
APSANQGDEALSVDDIR [RTT102]	2.98 ± 0.088
APTGSGKTNIALLTVLK [BRR2]	3.35 ± 0.052
APVEVQEDFEVVEEFTP [RPS5]	3.02 ± 0.049
AQDSLTVTIASSLNLED [RPB8]	2.23 ± 0.079
AQDVALAKKWFLQHPDE [PRP8]	2.33 ± 0.13
AQFTFGKAATAKETHTK [YOR098C/NUP1]	2.84 ± 0.18
AQGTKFRISLGLPVGAI [RPL23A]	1.42 ± 0.17

Sequence	protein stability index
AQLAKAKTELNEVSLAI [SMC2]	1.82 ± 0.097
AQQVPPYGVYHPPFIKY [SIN4]	2.33 ± 0.074
AQRLQISDYQQLESIYF [SWI1]	2.58 ± 0.043
ARDIISHNFQNAIFQME [PCI8]	2.75 ± 0.046
ARDLFLKIYYKEEFSSD [RRI2]	2.03 ± 0.22
ARHKKKVENLDYMYENG [YML031W/NDC1]	3.08 ± 0.12
ARIALRHLEKEGIIKPI [RPS25A]	3.06 ± 0.094
ARIVRVRSREDRKNRAP [RPS26A]	3.27 ± 0.26
ARNVTFDSLRNFIVHSP [GRR1]	2.25 ± 0.08
ARQRGKLKKSEEKVLST [SRP68]	3.33 ± 0.071
ARRTLQKLGLDETYKGV [RPL5]	3.43 ± 0.14
ARWPAKSVKFVQGLLQN [RPL17A]	1.89 ± 0.088
ARYYRTVAVLPPNWKYE [RPS13]	2.18 ± 0.051
ASAASEAIRDPKNSSSP [SSN8]	2.46 ± 0.25
ASAPLCSPKLPVEKVQR [DLS1]	2.92 ± 0.053
ASITPYKLVNKNKENNT [RPN4]	2.48 ± 0.12
ASLVDYVQVRQPIFVAH [RPS5]	2.1 ± 0.14
ASLVPEGNQGSLQEDVS [MED8]	2.9 ± 0.048
ASPHASVRTAVFSALKN [ECM29]	1.25 ± 0.083
ASSTPIPVLGKPTDATG [YOR098C/NUP1]	2.6 ± 0.05
ASVRIKDKFNQIPLHRA [NAS6]	2.91 ± 0.14
ASYAKYLIDHIKVEGAV [RPL22A]	2.85 ± 0.092
ATDISGELRDYIEDFLL [YJR042W/NUP85]	3.22 ± 0.056
ATFLKDDLPYYVNALAD [QCR2]	2.27 ± 0.053

Same assay, conditions: ubr1∆

Sequence	protein stability index
AGYTDNVIRVWQVMTAN [ASC1]	1.3 ± 0.075
AHSLSPKDYIKKLLEVH [CDC53]	1.77 ± 0.042
AIALAVRLGEEDMIRSV [RPN1]	3.39 ± 0.14
AIITDDLDTVLKKDIES [SRP72]	2.43 ± 0.049
AIKELNYNRIAKICALL [NUT1]	2.32 ± 0.043
AILQKSLKNVTEKNREI [YIL149C/MLP2]	2.96 ± 0.036
AILVPMTVNDQPIEKNG [YJR042W/NUP85]	2.8 ± 0.079
AIMKPYYLWTGKQVFSL [RPO31]	2.72 ± 0.061
AIRKNGQIDFWYQFSNS [SIN4]	2.52 ± 0.056
AISTGAKIDVMLTIARL [RPN7]	3.38 ± 0.075
AITNTGPREDTTRVGGG [RPS5]	3.18 ± 0.054
AKALESLASCLRSTEYS [POP1]	2.61 ± 0.17
AKEELNGLKDQLNEERS [YIL149C/MLP2]	3.41 ± 0.15
AKETHTKPSETPATIVK [YOR098C/NUP1]	3.12 ± 0.066
AKGVYRPNGRKDHDLKI [POP1]	3.03 ± 0.061
AKKQNRPLPQWIRLRTN [RPL39]	2.44 ± 0.043
AKLIRSAIEHTTLKSVT [RPO21]	3.04 ± 0.12
AKLWFYIYLSHETLARS [RPN3]	1.65 ± 0.084
AKNETNSESDSKSDSDS [ITC1]	2.88 ± 0.042
AKPDARTQAGDIVSIDI [MTW1]	3.64 ± 0.098
AKRNLDANPSSQIIARN [SMC2]	2.92 ± 0.065
AKSTPNTNPSPLKTQTK [GAL11]	2.91 ± 0.038
AKTELNEVSLAIKKSSM [SMC2]	2.96 ± 0.053
AKTFIDLESSSPELKAD [RPS7B]	3.17 ± 0.085
ALAFCEIGITQQRIVSA [RRP4]	2.25 ± 0.075

Sequence	protein stability index
ALDIVCSDFVKILNLEK [NUT1]	2.29 ± 0.099
ALENDVATNIVNEDPIF [YML103C/NUP188]	3.05 ± 0.048
ALFFDPSLNPIPHFIDN [PRP8]	2.61 ± 0.04
ALILADSEIEISSEKLL [RPP1A]	2.06 ± 0.081
ALIRRDFTLIPRMASVF [CDC53]	2.17 ± 0.14
ALLNFVLPKIFNSVKSF [SNF2]	1.33 ± 0.043
ALPRKLRRRTASHNVRR [POP1]	2.74 ± 0.039
ALRLSMEEEQQRQERLR [RPN10]	3.38 ± 0.11
ALSLLYHLLNYDPIKRI [SSN3]	2.19 ± 0.039
AMHNSKAASSTRIFQAL [POP1]	2.89 ± 0.11
ANALGGLGVNRRILAAA [SSN3]	1.92 ± 0.046
ANANANATANATANATA [SNF11]	3.342 ± 0.029
ANDHDESIDVDMDAESN [SMC3]	1.81 ± 0.25
ANIELTWAEGTFEQFKD [RPC37]	3.32 ± 0.093
ANLGKYGILSIDDLIHE [RPL7A]	1.15 ± 0.086
ANTGGQDKIELSEEETL [SNF2]	2.94 ± 0.12
APIPKGRVKYTKRQKHF [POP1]	1.77 ± 0.082
APIQLKIDLLSGQFYFR [RGR1]	3.02 ± 0.082
APNNSNGGSEEEITCAL [MED7]	3.31 ± 0.085
APQLFPYGSFHQQQLQQ [DSN1]	3.15 ± 0.069
APTGSGKTNIALLTVLK [BRR2]	2.88 ± 0.049
APVEVQEDFEVVEEFTP [RPS5]	2.94 ± 0.062
AQDSLTVTIASSLNLED [RPB8]	1.89 ± 0.045
AQDVALAKKWFLQHPDE [PRP8]	2.67 ± 0.077
AQFTFGKAATAKETHTK [YOR098C/NUP1]	3.02 ± 0.18

Sequence	protein stability index
AQGTKFRISLGLPVGAI [RPL23A]	1.92 ± 0.11
AQLAKAKTELNEVSLAI [SMC2]	2.61 ± 0.046
AQQVPPYGVYHPPFIKY [SIN4]	2.18 ± 0.069
AQRLQISDYQQLESIYF [SWI1]	2.76 ± 0.046
ARDIISHNFQNAIFQME [PCI8]	2.92 ± 0.05
ARDLFLKIYYKEEFSSD [RRI2]	2.9 ± 0.1
ARIALRHLEKEGIIKPI [RPS25A]	3.12 ± 0.085
ARIVRVRSREDRKNRAP [RPS26A]	2.87 ± 0.099
ARNVTFDSLRNFIVHSP [GRR1]	1.94 ± 0.041
ARQRGKLKKSEEKVLST [SRP68]	3.67 ± 0.21
ARWPAKSVKFVQGLLQN [RPL17A]	2.13 ± 0.073
ARYYRTVAVLPPNWKYE [RPS13]	1.92 ± 0.029
ASAASEAIRDPKNSSSP [SSN8]	3.13 ± 0.13
ASAPLCSPKLPVEKVQR [DLS1]	3.03 ± 0.049
ASITPYKLVNKNKENNT [RPN4]	2.11 ± 0.07
ASLVDYVQVRQPIFVAH [RPS5]	1.67 ± 0.11
ASLVPEGNQGSLQEDVS [MED8]	2.41 ± 0.097
ASPHASVRTAVFSALKN [ECM29]	1.42 ± 0.056
ASSTPIPVLGKPTDATG [YOR098C/NUP1]	2.42 ± 0.036
ASVRIKDKFNQIPLHRA [NAS6]	3.17 ± 0.055
ASYAKYLIDHIKVEGAV [RPL22A]	3.23 ± 0.11
ATDISGELRDYIEDFLL [YJR042W/NUP85]	3.3 ± 0.041
ATFLKDDLPYYVNALAD [QCR2]	2.35 ± 0.032
